Laboratory results reported in US11505576B2, “Polypeptides based on a scaffold” (AFFIBODY AB, priority 2018, dated 2022).

What was measured:
[1] = Fraction of soluble product on expression in E. coli, estimated from SDS-PAGE; format: physicochemical; conditions: MGSSHHHHHHGSS-[Y#####]-A; for Estimated soluble fraction: Table 7, Ylib002Naive.I selection; for Est soluble fraction: Table 9, mutation study 5
Method: E. coli T7E2 cells were transformed with plasmids containing the gene fragment of each respective Y variant. The resulting recombinant strains were generally cultivated in media supplemented with 50 μg/ml kanamycin at 30-37° C. in 50 ml scale using the EnPresso protocol (Enpresso GmbH). In order to induce protein expression, isopropyl-β-D-1-thiogalactopyranoside (IPTG) was added to a final concentration of 0.5 mM at an optical density at 600 nm (OD600) of approximately 10. After induction, the cultures were incubated for 16 h. The cells were harvested by centrifugation. Alternatively, the culture was performed at 37° C. in 980 ml of TSB-YE medium (tryptic soy broth 30 g/l supplemented with yeast extract 5 g/l) supplemented with 50 μg/ml kanamycin, and protein expression induced with 0.2 mM IPTG at OD600=2, followed by incubation for 5 h before harvesting of the cells by centrifugation. The total yield as well as the fraction of soluble and insoluble product of the respective Y variant was estimated based on SDS-PAGE analysis.

[2] = Circular dichroism spectroscopy analysis (CD spectra, variable temperature measurement, refolding); format: physicochemical; conditions: for Tm: Table 7, MGSSHHHHHHGSS-[Y#####]-A
Method in brief: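 Y variants at 0.5 mg/ml in PBS were scanned from 250 to 195 nm at 20° C. in a 1 mm cell. Tm came from the 221 nm signal during heating from 20 to 90° C. at 5° C./min, and a second 20° C. spectrum after heating assessed refolding. Selected IL-6 binders were also recorded at 60, 70, 80 and 90° C.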

C4 = assay: Kinetic analysis using surface plasmon resonance (Biacore T200), immobilized C4; format: binding; conditions: Table 7; MGSSHHHHHHGSS-[Y#####]-A
Method: (§1) Kinetic constants (ka and kd) and affinities (KD) were determined for His6-tagged Y variants using a Biacore T200 instrument (GE Healthcare). Target proteins C4, IL-6 and insulin, respectively, were immobilized in separate flow cells on the carboxylated dextran layer of different CM5 chip surfaces (GE Healthcare). Immobilization was performed using amine coupling chemistry according to the manufacturer's protocol and PBS pH 7.4 supplemented with 0.1 Tween20 (PBST 0.1%) as running buffer. The ligand immobilization levels on the surfaces were 3280-8830 RU for C4, 495-1184 RU for IL-6, and 270-282 RU for insulin. One flow cell surface on each chip was activated and deactivated for use as blank during analyte injections. In the kinetic experiment, PBST 0.1% was used as running buffer at a flow rate of 30 μl/min. The analytes, i.e. Y variants, were each diluted in PBST 0.1 buffer at concentrations of 1000, 500, 100, 50 and 10 nM and injected for 5 min, followed by dissociation in running buffer for 3 min. After dissociation, the surfaces were regenerated with one injection of 30 μl 10 mM HCl. Kinetic constants were calculated from the sensorgrams using the Langmuir 1:1 model of Biacore T200 Evaluation software 2.0 (GE Healthcare).
(§2) Produced Y variants were subjected to CD and SPR analyses according to the methods described in Example 1.
The Y variants were cloned, produced and characterized according to the general methods described in Example 1. Produced Y variants with point mutations and/or N-terminal or C-terminal extensions were subjected to CD and SPR analyses as described in Example 1.
(§3) Produced Y variants were subjected to CD and SPR analyses according to the methods described in Example 1. In addition, CD spectra of selected IL-6 binding variants were also recorded at 60, 70, 80 and 90° C.

IL-6 = target: T1, IL-6 (Homo sapiens, UniProt P05231); assay: Kinetic analysis using surface plasmon resonance (Biacore T200), immobilized IL-6; format: binding; conditions: MGSSHHHHHHGSS-[Y#####]-A
T1 construct: purchased R&D Systems 206-IL-200/CF
T1 sequence (P05231 30-212): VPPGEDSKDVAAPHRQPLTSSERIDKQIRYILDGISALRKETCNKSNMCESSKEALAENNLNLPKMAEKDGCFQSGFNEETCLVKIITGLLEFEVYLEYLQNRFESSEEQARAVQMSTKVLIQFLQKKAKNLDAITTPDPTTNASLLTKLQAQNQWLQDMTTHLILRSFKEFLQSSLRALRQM
Method: as §1, §2, §3
The Y variants were cloned, produced and characterized according to the general methods described in Example 1. Produced Y variants with point mutations were subjected to CD and SPR analyses as described in Example 1. In addition, CD spectra of the IL-6 binding variants were also recorded at 60, 70, 80 and 90° C.

## Y02330: C4 binding Y variant from Ylib002Naive.I, SEQ ID NO:37 (LAEAKEAAIAELDSKGVGAELIKKIQHAESVEGVQFWKQEILAYLPA; Engineered C4 binding Y variant)
[1]
  Estimated soluble fraction: 100%
[2]
  Tm: 49 °C
C4
  Kd: 48 nM
  ka: 96000 M⁻¹ s⁻¹
  kd: 0.0046 s⁻¹

## Y02698: IL-6 binding Y variant, Y02444 with K15Y, SEQ ID NO:82 (LAEAKEAAIAELDSYGVGAVEIKQIQEALLVEIVQLLKQAILAVLPA; Engineered IL-6 binding Y variant)
[1]
  Est soluble fraction: 100%
IL-6; Table 9, mutation study 5
  Kd: 120 nM
  ka: 28000 M⁻¹ s⁻¹
  kd: 0.0033 s⁻¹

## Y02358: C4 binding Y variant from Ylib002Naive.I, SEQ ID NO:39 (LAEAKEAAIAELDSKGVGADDIKLIQDAPSVEGVQEIKQFILAQLPA; Engineered C4 binding Y variant)
[1]
  Estimated soluble fraction: 100%
[2]
  Tm: 51 °C
C4
  Kd: 16 nM
  ka: 90000 M⁻¹ s⁻¹
  kd: 0.0014 s⁻¹

## Y02374: IL-6 binding Y variant from Ylib002Naive.I, SEQ ID NO:72 (LAEAKEAAIAELDSKGVGAAEIKRIQAAELVEIVQLLKQAILAVLPA; Engineered IL-6 binding Y variant)
[1]
  Estimated soluble fraction: 100%
IL-6; Table 7
  Kd: 120 nM
  ka: 14000 M⁻¹ s⁻¹
  kd: 0.0017 s⁻¹

## Y02701: IL-6 binding Y variant, Y02415 with K15Y, SEQ ID NO:85 (LAEAKEAAIAELDSYGVGAGDIKDIQDALLVEIVQLLKQAILAVLPA; Engineered IL-6 binding Y variant)
[1]
  Est soluble fraction: 100%
IL-6; Table 9, mutation study 5
  Kd: 210 nM
  ka: 21000 M⁻¹ s⁻¹
  kd: 0.0036 s⁻¹

## Y02447: IL-6 binding Y variant from Ylib002Naive.I, SEQ ID NO:76 (LAEAKEAAIAELDSKGVGAHGIKEIQDAILVEIVQLLKQAILAALPA; Engineered IL-6 binding Y variant)
[1]
  Estimated soluble fraction: 100%
IL-6; Table 7
  Kd: 160 nM
  ka: 11000 M⁻¹ s⁻¹
  kd: 0.0017 s⁻¹

## Y02303: C4 binding Y variant from Ylib002Naive.I, SEQ ID NO:34 (LAEAKEAAIAELDSKGVGAEEIKWIQNAWSVEGVQIMKQQILAELPA; Engineered C4 binding Y variant)
[1]
  Estimated soluble fraction: 100%
[2]
  Tm: 43 °C
C4
  Kd: 2200 nM
  ka: 96000 M⁻¹ s⁻¹
  kd: 0.21 s⁻¹

## Y02444: IL-6 binding Y variant from Ylib002Naive.I, SEQ ID NO:75 (LAEAKEAAIAELDSKGVGAVEIKQIQEALLVEIVQLLKQAILAVLPA; Engineered IL-6 binding Y variant)
[1]
  Estimated soluble fraction: 100%
[2]; CD spectra recorded at 60, 70, 80 and 90° C.
  Structure at elevated temperature: partial structure also at temperatures up to 90 °C
IL-6; Table 7
  Kd: 61 nM
  ka: 90000 M⁻¹ s⁻¹
  kd: 0.0055 s⁻¹

## Y02495: IL-6 binding Y variant from Ylib002Naive.I, SEQ ID NO:79 (LAEAKEAAIAELDSKGVGAEEIKEIQGAMLVEIVQLLKQAILAVLPA; Engineered IL-6 binding Y variant)
[1]
  Estimated soluble fraction: 100%
IL-6; Table 7
  Kd: 240 nM
  ka: 7100 M⁻¹ s⁻¹
  kd: 0.0017 s⁻¹

## Y02697: IL-6 binding Y variant, Y02444 with I9L, SEQ ID NO:81 (LAEAKEAALAELDSKGVGAVEIKQIQEALLVEIVQLLKQAILAVLPA; Engineered IL-6 binding Y variant)
[1]
  Est soluble fraction: 100%
IL-6; Table 9, mutation study 5
  Kd: 150 nM
  ka: 50000 M⁻¹ s⁻¹
  kd: 0.009 s⁻¹

## Y02465: IL-6 binding Y variant from Ylib002Naive.I, SEQ ID NO:78 (LAEAKEAAIAELDSKGVGANHIKAIQHAQFVEIVQLLKQAILAVLPA; Engineered IL-6 binding Y variant)
[1]
  Estimated soluble fraction: 100%
IL-6; Table 7
  Kd: 270 nM
  ka: 7500 M⁻¹ s⁻¹
  kd: 0.0021 s⁻¹

## Y00792: C4 binding Y variant from Ylib002Naive.I, SEQ ID NO:32 (LAEAKEAAIAELDSKGVGADLIKKIQQASSVEGVQFWKQEILAQLPA; Engineered C4 binding Y variant)
[1]
  Estimated soluble fraction: 100%
[2]
  Tm: 58 °C
C4
  Kd: 62 nM
  ka: 27000 M⁻¹ s⁻¹
  kd: 0.0017 s⁻¹

## Y02702: IL-6 binding Y variant, Y02415 with Q26E, SEQ ID NO:86 (LAEAKEAAIAELDSKGVGAGDIKDIEDALLVEIVQLLKQAILAVLPA; Engineered IL-6 binding Y variant)
[1]
  Est soluble fraction: 100%
IL-6; Table 9, mutation study 5
  Kd: 440 nM
  ka: 16000 M⁻¹ s⁻¹
  kd: 0.007 s⁻¹

## Y02337: C4 binding Y variant from Ylib002Naive.I, SEQ ID NO:38 (LAEAKEAAIAELDSKGVGAAEIKWIQHASTVEGVQGRKQQILAELPA; Engineered C4 binding Y variant)
[1]
  Estimated soluble fraction: 100%
[2]
  Tm: 31 °C
C4
  Kd: 1900 nM
  ka: 420000 M⁻¹ s⁻¹
  kd: 0.81 s⁻¹

## Y02700: IL-6 binding Y variant, Y02415 with I9L, SEQ ID NO:84 (LAEAKEAALAELDSKGVGAGDIKDIQDALLVEIVQLLKQAILAVLPA; Engineered IL-6 binding Y variant)
[1]
  Est soluble fraction: 100%
IL-6; Table 9, mutation study 5
  Kd: 62 nM
  ka: 46000 M⁻¹ s⁻¹
  kd: 0.0025 s⁻¹

## Y02309: C4 binding Y variant from Ylib002Naive.I, SEQ ID NO:35 (LAEAKEAAIAELDSKGVGADLIKKIQKAESVEGVQFWKQEILATLPA; Engineered C4 binding Y variant)
[1]
  Estimated soluble fraction: 100%
[2]
  Tm: 56 °C
C4
  Kd: 70 nM
  ka: 36000 M⁻¹ s⁻¹
  kd: 0.0025 s⁻¹
